For experiment [1], the target named is binding partner of C5A (XPA23). The experiment is described as follows: Biacore, K-off. (In general: Surface plasmon resonance follows binding to a sensor surface in real time, without labels.)
Experiment [2] has as its target binding partner of C5A (XPA23). The experiment is described as follows: Biacore.

B1: C5A (XPA23) VH M57N (antibody, V domains shown)
VH: EVQLLESGGGLVQPGGSLRLSCAASGFTFSKYFMFWVRQAPGKGLEWVSVISPSGGNTRYADSVKGRFTISRDNSKNTLYLQMNSLRAEDTAVYYCARVGYGGNSDYWGQGTLVTVSS
VL: DIQMTQSPSSVSASVGDRLTIICRASQDINRWLAWYQQTPGNAPKLLIHSATSLQSGVPSRFSGSGSGTDFTLTINSLQPEDFATYYCQQADSFPLTFGGGTKVEIK
For B1, the fold difference in affinity vs original in experiment [1] came to 0.03 fold. Besides, the fold affinity vs original in experiment [2] was determined as 0.03 fold.

B2: C5A (XPA23) VH T58S (antibody, V domains shown)
VH: EVQLLESGGGLVQPGGSLRLSCAASGFTFSKYFMFWVRQAPGKGLEWVSVISPSGGMSRYADSVKGRFTISRDNSKNTLYLQMNSLRAEDTAVYYCARVGYGGNSDYWGQGTLVTVSS
VL: DIQMTQSPSSVSASVGDRLTIICRASQDINRWLAWYQQTPGNAPKLLIHSATSLQSGVPSRFSGSGSGTDFTLTINSLQPEDFATYYCQQADSFPLTFGGGTKVEIK
In the case of B2, the fold difference in affinity vs original in experiment [1] turned out to be 0.82 fold. The fold affinity vs original in experiment [2] came to 0.82 fold.

B3: C5A (XPA23) VH M57Q (antibody, V domains shown)
VH: EVQLLESGGGLVQPGGSLRLSCAASGFTFSKYFMFWVRQAPGKGLEWVSVISPSGGQTRYADSVKGRFTISRDNSKNTLYLQMNSLRAEDTAVYYCARVGYGGNSDYWGQGTLVTVSS
VL: DIQMTQSPSSVSASVGDRLTIICRASQDINRWLAWYQQTPGNAPKLLIHSATSLQSGVPSRFSGSGSGTDFTLTINSLQPEDFATYYCQQADSFPLTFGGGTKVEIK
For B3, the fold difference in affinity vs original in experiment [1] turned out to be 0.02 fold. Also, the fold affinity vs original in experiment [2] came out at 0.02 fold.

B4: C5A (XPA23) VH M57Y (antibody, V domains shown)
VH: EVQLLESGGGLVQPGGSLRLSCAASGFTFSKYFMFWVRQAPGKGLEWVSVISPSGGYTRYADSVKGRFTISRDNSKNTLYLQMNSLRAEDTAVYYCARVGYGGNSDYWGQGTLVTVSS
VL: DIQMTQSPSSVSASVGDRLTIICRASQDINRWLAWYQQTPGNAPKLLIHSATSLQSGVPSRFSGSGSGTDFTLTINSLQPEDFATYYCQQADSFPLTFGGGTKVEIK
B4: in experiment [1], the fold difference in affinity vs original was 0.86 fold. Besides, the fold affinity vs original in experiment [2] worked out at 0.86 fold.

B5: C5A (XPA23) VH T58R (antibody, V domains shown)
VH: EVQLLESGGGLVQPGGSLRLSCAASGFTFSKYFMFWVRQAPGKGLEWVSVISPSGGMRRYADSVKGRFTISRDNSKNTLYLQMNSLRAEDTAVYYCARVGYGGNSDYWGQGTLVTVSS
VL: DIQMTQSPSSVSASVGDRLTIICRASQDINRWLAWYQQTPGNAPKLLIHSATSLQSGVPSRFSGSGSGTDFTLTINSLQPEDFATYYCQQADSFPLTFGGGTKVEIK
For the molecule B5, the fold difference in affinity vs original in experiment [1] was 1.14 fold. Besides, in experiment [2], the fold affinity vs original was found to be 1.14 fold.

B6: C5A (XPA23) VH T58D (antibody, V domains shown)
VH: EVQLLESGGGLVQPGGSLRLSCAASGFTFSKYFMFWVRQAPGKGLEWVSVISPSGGMDRYADSVKGRFTISRDNSKNTLYLQMNSLRAEDTAVYYCARVGYGGNSDYWGQGTLVTVSS
VL: DIQMTQSPSSVSASVGDRLTIICRASQDINRWLAWYQQTPGNAPKLLIHSATSLQSGVPSRFSGSGSGTDFTLTINSLQPEDFATYYCQQADSFPLTFGGGTKVEIK
With B6, the fold difference in affinity vs original in experiment [1] came to 0.12 fold. In experiment [2], the fold affinity vs original was determined as 0.12 fold.

B7: C5A (XPA23) VH T58H (antibody, V domains shown)
VH: EVQLLESGGGLVQPGGSLRLSCAASGFTFSKYFMFWVRQAPGKGLEWVSVISPSGGMHRYADSVKGRFTISRDNSKNTLYLQMNSLRAEDTAVYYCARVGYGGNSDYWGQGTLVTVSS
VL: DIQMTQSPSSVSASVGDRLTIICRASQDINRWLAWYQQTPGNAPKLLIHSATSLQSGVPSRFSGSGSGTDFTLTINSLQPEDFATYYCQQADSFPLTFGGGTKVEIK
For B7, the fold difference in affinity vs original in experiment [1] is 0.98 fold. Moreover, the fold affinity vs original in experiment [2] was 0.98 fold.

The record behind these values is patent US20110118447A1.
